Data: patent publication US6919309B2, “Methods and compositions for inhibiting angiogenesis” (Northwestern University, priority 1997, dated 2005)
“Also recorded” adds a separate entry of the source. Marks after values point to notes of the source that are not given here.

How the values were obtained:
[1] = tested on: bovine adrenal capillary endothelial cells; experiment: Endothelial cell migration assay (modified Boyden chamber), bovine adrenal capillary endothelial cells; format: cell-based
Experimental: The cells were plated on gelatinized Nucleopore membranes (5 μm pores for bovine capillary cells and 8 μm pores for other cells) in an inverted modified Boyden chamber. After two hours, the chamber was reinverted and test substances added to the top wells of each. Specifically, populations were exposed to either culture medium alone (control), 10 ng/ml bFGF, 2 nM PEDF (full length PEDF), or both 10 ng/ml bFGF (basic fibroblast growth factor) and 10 nM PEDF. The cells were then permitted to migrate for 3-4 hours. Following this, the membranes were fixed and stained, and the number of cells that had migrated were counted.
The amount of a given factor necessary to achieve 50% of migration was determined and is reported here as ED50.
In particular, aFGF was employed at a concentration of 50 ng/ml, bFGF was employed at a concentration of 10 ng/ml, IL-8 was employed at a concentration of 40 ng/ml, PDGF was employed at a concentration of 250 pg/ml, and VEGF was employed at a concentration of 100 pg/ml.
In studies aimed at identifying antiangiogenic factors in the eye that might be regulated by the retinoblastoma tumor suppressor gene (Rb), media was fractionated where the media was previously conditioned by a retinoblastoma cell line that had been infected with a retrovirus expressing the wild-type Rb gene, WERI-Rb-27R. (Xu et al., 1991, Cancer Res. 51:4481). […] PEDF was purified from WERI-Rb-27R serum-free conditioned media by sequential steps consisting of dialysis (molecular mass cutoff, 30 kD) against distilled water, 60 to 95% ammonium sulfate precipitation, step elution from lentil lectin Sepharose 4B (Pharmacia) with 0.5 M α-methyl-D-mannopyranoside, and elution from a HiTrap heparin Sepharose column (Pharmacia) with increasing NACl gradient. (Xu, et al., 1991, Cancer Res. 51:4481). […] Migration assays were performed in quadruplicate for each sample with bovine adrenal capillary endothelial cells or human dermal microvascular endothelial cells (Clonetics, San Diego, Calif.) as described. (Polverini, et al., 1991, Methods Enzymol. 198:440). To combine multiple experiments, background migration (Bkgd) was first subtracted toward vehicle (0.1% bovine serum albumin) and them normalized data by setting maximum migration toward inducer alone to 100%. All experiments were repeated two to five times. Statistics were performed on raw data before normalization with the Student's t test. Standard errors were converted to percentages. […] Single-letter abbreviations for the amino acid residues are as follows: A, Ala; D, Asp; E. Glu; F. Phe; G, Gly; I, Ile; L, Leu; M, Met; P, Pro; Q, Gln; R, Arg; S, Ser; T, Thr; V, Val; X, any amino acid; and Y, Tyr.

[2] = tested on: retina of C57/BL6 mice; experiment: Hyperoxia-induced ischemic retinopathy, systemic treatment; format: in vivo, mouse; conditions: day 12 through 16
Experimental: Retinopathy was induced in C57/BL6 mice by placing seven day old mice with their dams in an oxygen tent and maintaining the animals in a 75% oxygen/25% nitrogen environment until day twelve. On day twelve, the animals were removed from the tent and placed at ambient atmosphere (21% oxygen). From day twelve through day sixteen, pups were treated via intraperitoneal injection once per day with 100 μl of either phosphate buffered saline (PBS) vehicle, or 11.2 μg or 22.4 μg PEDF in PBS. Pups were anesthetized with Metaphane and perfused with 1 ml of fixative (4% paraformaldehyde/100 mM sodium phosphate buffer (pH 7.2)/4% sucrose) through the left ventricle of the heart. Eyes were removed and placed in fixative, embedded in paraffin, and processed for histologic examination. Cross sections of the eye were made, stained with hematoxylin-phloxine-saffarin (HPS), and the number of endothelial cell nuclei crossing the inner limiting membrane of the retina were counted in one cross section that contained the cornea, lens, retina and optic nerve. FIG. 16A illustrates retinopathy in the eye of a PBS treated animal, the box surrounds a vascular tuft that has penetrated the inner limiting membrane of the retinal in the low power picture. FIGS. 16C and 16D illustrate the eye of a PEDF treated mouse, no vascular tufts are present. The # of endothelial cell nuclei were quantified (Table 3).

[3] = tested on: avascular rat cornea; experiment: Rat cornea neovascularization assay (implanted pellets); format: in vivo
Experimental: FIG. 13, comprising FIGS. 13A and 13B, is a table and a series of images of photomicrographs depicting inhibition of neovascularization by purified PEDF and by PEDF present naturally in normal human vitreous and cornea. FIG. 13A: Recombinant (rPEDF) or purified (pPEDF) PEDF (8 nM), PEDF peptide 327 to 343 (299 μg/ml), undiluted vitreous fluid, or corneal extract (used at 200 μg of protein per milliliter) was incorporated with vehicle (PBS) and the indicated additions into Hydron pellets that were implanted into the avascular rat cornea. Vigorous ingrowth of vessels from the limbus toward the pellet by 7 days was scored as a positive response (Polverini, et al, 1991, Methods Enzymol 198:440). Where noted, anti-PEDF linked to protein A beads was used to remove PEDF from vitreous fluid and corneal extract. FIG. 13B, comprising FIGS. 13B-1 through 13B-8: Representative photos of corneal responses from FIG. 13A shown at X13 magnification. PEDF antipeptide antibody (anti-PEDF) was raised in rabbits against a peptide containing pEDF amino acids 327-343, conjugated to Keyhole-limpet hemocyanin, and affinity-purified on a peptide column. Polyclonal antisera against bacterial recombinant PEDF/EPC-1 (anti-EPC-1) is described in DePaolo, et al. (1995, Exp. Cell Res. 220:178) and the antiangiogenic protein angiostatin is descried in O'Reilly, et al. ([…], Cell 79:315). Purchased reagents included neutralizing anti-VEGF (Genzyme Cambridge, Mass.), pan antibodies to TGFβ, and all angiogenic inducers (R&D Systems, Minneapolis, Minn.) except lysophosphatidic acid (Sigma). All proteins and antibodies were extensively dialyzed against PBS before use in biological assays. FIG. 13B-1 corresponds to sample 2 of FIG. 13A; FIG. 13B-2 corresponds to sample 12 of FIG. 13A, FIG. 13B-3 corresponds to sample 3 of FIG. 13A; FIG. 13B-4 corresponds to sample 11 of FIG. 13A; FIG. 13B-5 corresponds to sample 8 of FIG. 13A; FIG. 13B-6 corresponds to sample 16 of FIG. 13A; FIG. 13B-7 corresponds to sample 6 of FIG. 13A; FIG. 13B-8 corresponds to sample 17 of FIG. 13A. […]

[4] = PEDF 8 nM in pellet, seven days

B1: PEDF: full length pigment epithelium derived growth factor, SEQ ID NO:1; purified from WERI-Rb-27R medium or recombinant histidine-tagged (protein, listed as Homo Sapiens)
chain: MQALVLLLCIGALLGHSSCQNPASPPEEGSPDPDSTGALVEEEDPFFKVPVNKLAAAVSNFGYDLYRVRSSMSPTTNVLLSPLSVATALSALSLGADERTESIIHRALYYDLISSPDIHGTYKELLDTVTAPQKNLKSASRIVFEKKLRIKSSFVAPLEKSYGTRPRVLTGNPRLDLQEINNWVQAQMKGKLARSTKEIPDEISILLLGVAHFKGQWVTKFDSRKTSLEDFYLDEERTVRVPMMSDPKAVLRYGLDSDLSCKIAQLPLTGSMSIIFFLPLKVTQNLTLIEESLTSEFIHDIDRELKTVQAVLTVPKLKLSYEGEVTKSLQEMKLQSLFDSPDFSKITGKPIKLTQVEHRAGFEWNEDGAGTTPSPGLQPAHLTFPLDYHLNQPFIFVLRDTDTGALLFIGKILDPRGP
[1]; 10 ng/ml bFGF plus PEDF, FIG. 1
  migration, percentage of maximal migration: considerably less migration was observed
[1]; 0.1 μg/ml PEDF, aFGF, bFGF, IL-8, PDGF, VEGF, FIG. 3
  migration toward different angiogenic inducers: considerably inhibited; also recorded: inhibited endothelial cell migration toward every angiogenic inducer we tested
[1]; migration towards bFGF, FIGS. 4 and 5
  potency at inhibiting endothelial cell migration, dose response: active at sub-nanomolar concentrations
[2]; 11.2 μg PEDF/day intraperitoneal
  Mean number of endothelial cell nuclei crossing ILM into vitreous per cross section: 18.6 +/− 2.2*
[2]; 22.4 μg PEDF/day intraperitoneal
  Mean number of endothelial cell nuclei crossing ILM into vitreous per cross section: 18.2 +/− 2.5*
[3]; Hydron pellets, 7 days, FIGS. 13A and 13B
  effect on neovascularization in the rat cornea: potently inhibited neovascularization
[3]; [4]
  number of corneas with angiogenesis/number of corneas implanted, With bFGF: 0/3
  number of corneas with angiogenesis/number of corneas implanted, Without bFGF: 0/3
